Molecular target: T1, HCoV-229E S ectodomain (17–1115 aa), 229E S trimer (human coronavirus 229E, UniProt P15423 17-1115)
T1 sequence (looked up): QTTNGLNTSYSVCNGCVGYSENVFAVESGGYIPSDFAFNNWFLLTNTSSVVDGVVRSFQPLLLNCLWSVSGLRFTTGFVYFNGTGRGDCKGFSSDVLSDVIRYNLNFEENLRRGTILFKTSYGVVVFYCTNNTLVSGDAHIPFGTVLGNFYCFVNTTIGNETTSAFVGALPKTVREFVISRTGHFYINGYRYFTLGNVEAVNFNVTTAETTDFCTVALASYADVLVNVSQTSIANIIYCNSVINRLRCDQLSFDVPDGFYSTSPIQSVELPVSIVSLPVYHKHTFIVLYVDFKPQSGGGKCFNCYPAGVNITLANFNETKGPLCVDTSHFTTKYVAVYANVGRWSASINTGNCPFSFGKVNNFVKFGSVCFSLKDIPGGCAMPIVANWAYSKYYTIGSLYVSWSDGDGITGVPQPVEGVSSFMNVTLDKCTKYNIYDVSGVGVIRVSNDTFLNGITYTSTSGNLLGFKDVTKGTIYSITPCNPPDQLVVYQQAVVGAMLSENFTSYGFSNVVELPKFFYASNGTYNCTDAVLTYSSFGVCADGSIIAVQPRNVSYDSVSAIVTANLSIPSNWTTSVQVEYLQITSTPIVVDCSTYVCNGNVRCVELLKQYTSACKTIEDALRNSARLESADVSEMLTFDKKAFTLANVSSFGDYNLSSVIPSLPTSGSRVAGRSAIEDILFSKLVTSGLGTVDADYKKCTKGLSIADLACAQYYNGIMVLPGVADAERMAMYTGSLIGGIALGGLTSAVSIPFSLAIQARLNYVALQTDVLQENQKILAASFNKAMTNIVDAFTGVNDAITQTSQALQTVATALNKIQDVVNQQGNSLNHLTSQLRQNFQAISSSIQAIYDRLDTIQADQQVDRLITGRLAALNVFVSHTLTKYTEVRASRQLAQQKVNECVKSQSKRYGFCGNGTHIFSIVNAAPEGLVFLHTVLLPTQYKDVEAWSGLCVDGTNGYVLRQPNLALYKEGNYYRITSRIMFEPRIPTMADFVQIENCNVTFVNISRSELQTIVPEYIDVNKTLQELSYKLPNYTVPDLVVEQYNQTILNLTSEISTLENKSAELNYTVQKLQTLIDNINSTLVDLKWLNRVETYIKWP
Experiment: SPR
Details: both partners purified

B1: human aminopeptidase N (hAPN), soluble ectodomain (66–967 aa) (receptor, UniProt P15144 66-967, looked up)
chain: DQSKAWNRYRLPNTLKPDSYRVTLRPYLTPNDRGLYVFKGSSTVRFTCKEATDVIIIHSKKLNYTLSQGHRVVLRGVGGSQPPDIDKTELVEPTEYLVVHLKGSLVKDSQYEMDSEFEGELADDLAGFYRSEYMEGNVRKVVATTQMQAADARKSFPCFDEPAMKAEFNITLIHPKDLTALSNMLPKGPSTPLPEDPNWNVTEFHTTPKMSTYLLAFIVSEFDYVEKQASNGVLIRIWARPSAIAAGHGDYALNVTGPILNFFAGHYDTPYPLPKSDQIGLPDFNAGAMENWGLVTYRENSLLFDPLSSSSSNKERVVTVIAHELAHQWFGNLVTIEWWNDLWLNEGFASYVEYLGADYAEPTWNLKDLMVLNDVYRVMAVDALASSHPLSTPASEINTPAQISELFDAISYSKGASVLRMLSSFLSEDVFKQGLASYLHTFAYQNTIYLNLWDHLQEAVNNRSIQLPTTVRDIMNRWTLQMGFPVITVDTSTGTLSQEHFLLDPDSNVTRPSEFNYVWIVPITSIRDGRQQQDYWLIDVRAQNDLFSTSGNEWVLLNLNVTGYYRVNYDEENWRKIQTQLQRDHSAIPVINRAQIINDAFNLASAHKVPVTLALNNTLFLIEERQYMPWEAALSSLSYFKLMFDRSEVYGPMKNYLKKQVTPLFIHFRNNTNNWREIPENLMDQYSEVNAISTACSNGVPECEEMVSGLFKQWMENPNNNPIHPNLRSTVYCNAIAQGGEEEWDFAWEQFRNATLVNEADKLRAALACSKELWILNRYLSYTLNPDLIRKQDATSTIISITNNVIGQGLVWDFVQSNWKKLFNDYGGGSFSFSNLIQAVTRRFSTEYELQQLEQFKKDNEETGFGSGTRALEQALEKTKANIKWVKENKEVVLQWFTENSK
notes: also called recombinant hAPN protein
B1: binds.

Reference: article PMC9636267 (Communications Biology, 2022)
